Data: patent US20090017017A1 (SYMPHOGEN A S, published 2009)

T1: Rhesus D antigen (human, UniProt Q02161 2-417)
T1 construct: whole, on cells; Presented on RhD(+) erythrocytes; also called RhD; RhD antigen
T1 sequence (looked up): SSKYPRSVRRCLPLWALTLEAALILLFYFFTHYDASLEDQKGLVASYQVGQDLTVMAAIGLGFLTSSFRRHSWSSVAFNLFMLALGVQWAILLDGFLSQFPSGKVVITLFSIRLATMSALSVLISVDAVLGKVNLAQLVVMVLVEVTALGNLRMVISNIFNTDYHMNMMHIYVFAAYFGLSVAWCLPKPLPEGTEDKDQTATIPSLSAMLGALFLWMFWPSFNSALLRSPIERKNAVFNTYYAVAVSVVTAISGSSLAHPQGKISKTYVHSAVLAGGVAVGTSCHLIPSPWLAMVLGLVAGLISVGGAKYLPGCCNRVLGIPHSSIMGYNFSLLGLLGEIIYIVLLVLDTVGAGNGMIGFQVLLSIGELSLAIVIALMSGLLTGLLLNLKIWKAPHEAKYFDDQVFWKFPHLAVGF

B1: RhD307.230E11 (Fab, V domains shown)
VH: QVQLVETGGGVVQPGRSLRLSCAASGFTFSSYGMHWVRQAPGKGLEWVAGIWYDGSNKYYGDSVKGRFTISRDNSRNTLYLHMNSLRADDTAVYYCAREHGGSRSGWYTLRLAYYFDYWGQGTLVTVSS
VL: DIQLTQSPSSLSASVGDRVTITCRASQYINVYLNWYQHKAGRAPKLLIYAASNLQSGVPPRFIGSGSGTDFTLTISSLQSEDFATYYCLQSFTVPRTFGPGTKVDVKR
notes: Tested as Fab in E. coli periplasmic extract (VH on human gamma 1 CH1, vector Em351)
B2: RhD306.223E11 (Fab, V domains shown)
VH: QVQLVESGGGVVQPGRSLRLSCAASGFTFSSYGMHWVRQAPGKGLEWVAVIWYDGSNKYYADSVKGRFTISRDNSKNTLYLQMNTLRDDDTAVYYCAREGTLYSSSWYRRYYYYGMDAWGQGTTVTVSS
VL: EIVLTQSPGTLSLSPGERVTLSCRPSRYIASDYLAWYQLRPGQAPKLLIYGASSRATGIPDRFSGVGSPTDFTLTISRLEPEDFAMYYCHYSGGSPPYPFGQGTRLDIKR
notes: as for B1
B3: RhD304.164B06 (Fab, V domains shown)
VH: QVQLVQSGGGVVQPGRSLRLSCAASGFTFSSYGMHWVRQAPGKGLEWVAVIWYDGSNKYYADSVKGRFTISRDNSKNTLYLQMNSLRAEDTAVYYCARETVVVAAKIRNHYYYAMDVWGQGTTVTVSS
VL: DIQMTQSPSSLSASLGGTVTLTCRSSQFISRYLNWYQQHPGKVPRLLISGASRLQRGVPSRFTGGGSGTDFTLTIKNVQPDDIATYFCQHSYRSGRAFGQGTTVEVKR
notes: as for B1
B4: RhD301.160A04 (Fab, V domains shown)
VH: QVQLVESGGGVVQPGRSLRLSCAASGFTFSSYGMHWVRQAPGKGLEWVAVIWFDGGNKYYADSAKGRFTISRDNSKNTLYLQMNSLRAEDTAVYYCARDASVLSGLVTRRLVYYGMDVWGQGTTVTVSS
VL: DVVMTQSPLSLPVTPGEPASISCRSSQSLLHRNGYNYLNWYLQKPGQSPQLLIYLGSNRASGVPDRFSGSGSGTDFTLKISGVEAEDVAFYYCMQGLRTPYTFGQGTKLEIKR
notes: as for B1
B5: RhD299.127A12 (Fab, V domains shown)
VH: QVQLVESGGGVVQPGRSLRLSCAASGFTFSNFGMHWVRQAPGKGLEWVAVIWYDGSNKDYADSVKGRFTISRDNSKRTLYLQMNSLRAEDTAVYYCARELARGRLRDLDYWGQGTLVTVSS
VL: QAVVTQEPSLTVSPGGTVTLTCASSTGAVTTGYYPNWFQQKPGQAPRALIYSTSKKHSWTPARFSGSLLGGKAALTLSGVQPEDEAEYYCLLFYGGAQLGVFGGGTKLTVLG
notes: as for B1
B6: RhD317.144A02 (Fab, V domains shown)
VH: QVQLQESGPGLVKPSGTLSLTCAVSGGSIRGSNWWSWVRQPPGKGLEWIGEIHHGGSTNYNPSLKSRVTISVDKSKNRFSLKLSSVTAADTAVYYCARGTSYYDSSGYSFRGLVAFDIWGQGTMVTVSS
VL: EIVLTQSPGTLSLSPGERATLSCRASQSVSSAFLAWYQQKPGQAPRLLIYGASSRATGIPDRFSGSGSGTDFTLTISRLEPEDFAVYYCQQYGSFSITFGQGTRLEIKR
notes: as for B1
B7: RhD300.134H09 (Fab, V domains shown)
VH: QVQLVESGGGVVQPGRSLRLSCAASGFTFSSYGMHWVRQAPGKGLEWVAVIWYDGSNKYYADSVKGRFTISRDNSKNTLYLQMNSLRAEDTAVYYCAREFYTRSGLWSQGYSYYMDVWGKGTTVTVSS
VL: QTVVTQEPSFSVSPGGTVTLTCGLSSGSVSARYYPSWYQQTPGQPPRTLIHSTNTRSSGVPDRFSGSILGNKAALTITGAQADDESDYYCVLYMGSGPWVFGGGTKLTVLG
notes: as for B1
B8: RhD302.160B10 (Fab, V domains shown)
VH: QVQLVESGGGVVQPGRSLRLSCAASGFTFSSYGMHWVRQAPGKGLEWVAFISYDGSNKYYADSVKGRFTISRDNSKNTLSLQMNSLRAEDTAVYYCAKEHGYYRSSWYRNYYYYGMDVWGQGTTVTVSS
VL: DIQLTQSPSSLSASVGDRVTITCRASQSISSYLNWYKQRPGKAPKLLIYAASTLQSGVPSRFSGSGSGTDFALTISSLQAEDFATYYCQQTYSTLWTFGQGTKVEITR
notes: as for B1
B9: RhD303.160B11 (Fab, V domains shown)
VH: QVQLVESGGGVVQPERSLRLSCAASGFTFSSYGMHWVRQAPGKGLEWVAVISYDGSNKYYADSVKGRFTISRDNSKNTLYLQMNSLRAEDTAVYYCAKDEVGYSSSWYRRYYYYAMDVWGQGTTVTVSS
VL: EIVLTQSPGTLSLSPGETATLSCRASQSVSDRDLAWYQQKSGQSPRLLMYGGSTRAPGIPVRFSGSGSGTEFTLTISSLQSEDFAIYYCQHYHDWPPTFGQGTRLEIKR
notes: as for B1
B10: RhD305.181E06 (Fab, V domains shown)
VH: QVQLVESGGGVVQPGRSLRLSCAASGFTFSSYGMHWVRQAPGKGLEWVAGIWYDGSNKYYADSVKGRFTISRDNSRNTMYLQMNSLRAEDTAVYYCAREQGGYSSSWYRRYYYYNMDLWGQGTTVTVSS
VL: EIVLTQSPGSLSLSPGERATLSCRASQSVSSSYLAWYQQKPGQAPRLLIYGPSSRATGIPDRFSGSGSGTDFTLTISRLEPEDFAVYYCQHFGNSRGTFGQGTKVEIRR
notes: as for B1
B11: RhD161.119E09 (Fab, V domains shown)
VH: EVQLVESGGGVVQSGRSLRLSCAASGFTFSNNGMHWVRQAPGKGLEWVAFIWYDGSNKYYADSVKGRFTISRDNSKNTLYLQMDGLRAEDSAVYYCAREEIAARLYSRYHYAMDVWGQGTMVTVSS
VL: DIQMTQSPSFLSASVGDRVTITCRASQGIRRYLAWFQQKPGKAPKLLIFSASTLQSGVPSRFSGSGSGTEFTLTISSLQPEDFATYYCQQLSSYPPYTFGQGTKLEIKR
notes: as for B1
B12: RhD294.119E10 (Fab, V domains shown)
VH: QVQLVESGGGVVQPGRSLRLSCAASGFSFSNYGMHWVRQAPGKGLEWVAVISYDGSEKYYADSVKGRFTISRDNSKKTLYLQMNSLRAEDTAMYYCKNKVGATRRAVVAVDIWGQGTMVTVSS
VL: EIVLTQSPGTLSLSPRERATLSCRANQYVNSNHLAWYQQKPGQAPRLLLYGASRRATGIPDRFSGSGTGTDFTLIISRLEPEDFAVYFCQLYDHSRPMYTFGQGTKLEIKR
notes: as for B1
B13: RhD296.126A03 (Fab, V domains shown)
VH: EVQLVESGGGVVQPGRSLRLSCEASGFTFSNYGMHWFRQAPGKGLEWVAIIWYDGSNKHYADSVKGRFTISRDNSKNTLYLQMNSLRAEDTAVYFCAREIASRGYSRYLYYFDSWGQGTLVTVSS
VL: DIQMTQSPSSLSASVGDRVTITCRASQSISSYLNWYQQKPGKAPKLLIFAASSLQSGVPSRFSGSGSGTDFSLTISSLQPEDFATYYCQQSYSSLALTFGGGTKVEIKR
notes: as for B1
B14: RhD159.119B09 (Fab, V domains shown)
VH: EVQLVETGGGLVQPGGSLRLSCAASGFSFRSYDMNWVRQAPGKGLEWVSYISGRGSTTYYADSVKGRFTISRDNAKNSLYLQMNSLRAEDTAVYYCARDLYGDYDPKSYYYYAMDVWGHGTTVTVSS
VL: EIVMTQSPGTLSLSPGERATLSCRASHTVSSGYLAWYQQKPGQAPRLLIYGASNRATGVPDRFGGSGSGTDFTLTISRLEPEDSAVYFCQQYGTSPGVTFGQGTRLEIER
notes: as for B1
B15: RhD295.119B11 (Fab, V domains shown)
VH: QVQLVESGGGLVQPGGSLRLSCVGSGFTFRSFDMNWVRQAPGKGLEWISYINSRGNTRYYVDSVKGRFTISRDNAKNSLYLQMNSLRAEDTAVYYCARDLYGDYDPKSYYYYGMDVWGQGTMVTVSS
VL: EIVLTQSPGTLSLSPGERATLSCRASQSFSSGYLAWYQQKPGQAPRLLIYGASNRATGIPDRFSGSGSGTDFTLTISRLEPEDFAVYYCQHYGSSPPITFGQGTRLEIKR
notes: as for B1
B16: RhD160.119C07 (Fab, V domains shown)
VH: EVQLVESGGGVVQPGRSLRLSCAASGFTFSNYGMHWVRQAPGKGLEWVAVIWYDGSNRFYADSVKGRFTISRDNSKNTLYLQMNNLRAEDTALYSCAREITTTVVVRRHYLMDIWGQGTTVTVSS
VL: DIQLTQSPSSLSASVGDRVSITCRASQGISNSLAWYQQKPGKVPKLLIYAASTLQSGVPSRFSGGGSGTDFTLTISSLQPEDVATYYCQKYNSAPFAFGPGTKVDIKR
notes: as for B1

molecular target: T1, Rhesus D antigen; test: Fab screening on RBC (agglutination, FACS)
Protocol: (§1) After each round of panning single colonies were picked for analysis of their binding properties to red blood cells in agglutination assays. Briefly, single colonies were inoculated into 2×YT/100 μg/mL carbenicillin/1% glucose and shaken overnight at 37° C. The next day, DeepWell plates were inoculated using 900 μl 2×YT/100 μg/mL carbenicillin/0.1% glucose and 10 μl overnight culture. The plates were shaken for two hours at 37° C., before Fab induction was performed with addition of 300 μl 2×YT/100 μg/mL carbenicillin/0.25 mM IPTG per well. The plate was shaken overnight at 30° C. The following day, the bacteria were pelleted by centrifugation (3200×g, 4° C., 10 minutes), and re-suspended in 100 μl of 0.8 M NaCl, 0.2×PBS, 8 mM EDTA, and incubated for 15 minutes on ice in order to perform a periplasmic extraction of the Fab fragments. The plate was transferred to −20° C. and finally the suspension was thawed and centrifugation was performed for 10 minutes at 4° C. and 3200×g. The periplasmic extract was used in ELISA assays for analysis of Fab content and in agglutination assays to evaluate the binding potential of the individual Fab fragments.
(§2) The agglutination assay was performed as follows: RhD(−) and RhD(+) RBC were mixed in a 1:1 ratio, and washed 3 times in PBS. After the final wash, the cell mix was re-suspended in 1% BSA in PBS at a density of 10% cells, 50 μl was added to each well of a 96-plate. Periplasmic extracts were added to the wells. As a positive control Rhesogamma P immunoglobulin (Aventis) was used according to the manufacturer's instructions. The plates were incubated for one hour at room temperature with gentle shaking. The cells were washed three times with PBS, before the secondary antibody was added (goat anti-human Fab/FITC conjugate, Sigma F5512) in a 1:100 dilution. The plates were left for agglutination for one hour at room temperature without shaking. Fab fragments positive in the agglutination assay was determined by visual inspection, and recorded by taking a picture. Quantization of the binding activity of the Fab fragments was performed by FACS analysis of the agglutination samples.

Binding result, binds:
B1
B2
B3
B4
B5
B6
B7
B8
B9
B10

molecular target: T1, Rhesus D antigen; test: agglutination assay, Fab periplasmic extract on RhD(+)/RhD(-) RBC mix
Protocol: as §1, §2

Binding result, binds:
B11
B12
B13
B14
B15
B16
